Measured values taken from patent US20030078381A1 (VANDERBILT UNIVERSITY, published 2003).
Each block holds one binder with its values, some of them ahead of it.

Legend:
[1] = biological target: T1, IL-20 receptor (IL-20R1/IL-20R2) heterodimeric receptor on co-transfected cells (human, UniProt Q6UXL0 30-311); assay: in situ cell surface AP staining of transfected Cos cells
T1 construct: whole, on cells; Both subunits were co-transfected into Cos-E5, BHK or Ba/F3 cells
T1 sequence 1: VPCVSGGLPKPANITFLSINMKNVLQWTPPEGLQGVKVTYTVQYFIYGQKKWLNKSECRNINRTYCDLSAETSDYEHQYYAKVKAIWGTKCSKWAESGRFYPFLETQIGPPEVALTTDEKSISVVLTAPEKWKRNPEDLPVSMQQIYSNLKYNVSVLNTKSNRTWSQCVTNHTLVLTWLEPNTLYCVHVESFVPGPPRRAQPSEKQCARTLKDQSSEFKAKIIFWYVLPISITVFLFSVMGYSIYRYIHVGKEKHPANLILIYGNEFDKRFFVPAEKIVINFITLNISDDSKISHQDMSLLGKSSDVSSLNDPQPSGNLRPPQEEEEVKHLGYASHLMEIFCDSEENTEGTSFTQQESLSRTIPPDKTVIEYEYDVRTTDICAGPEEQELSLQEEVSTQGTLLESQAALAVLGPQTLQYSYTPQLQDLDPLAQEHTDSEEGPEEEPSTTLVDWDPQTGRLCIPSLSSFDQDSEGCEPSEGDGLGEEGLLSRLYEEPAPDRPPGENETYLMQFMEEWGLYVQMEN
T1 sequence 2: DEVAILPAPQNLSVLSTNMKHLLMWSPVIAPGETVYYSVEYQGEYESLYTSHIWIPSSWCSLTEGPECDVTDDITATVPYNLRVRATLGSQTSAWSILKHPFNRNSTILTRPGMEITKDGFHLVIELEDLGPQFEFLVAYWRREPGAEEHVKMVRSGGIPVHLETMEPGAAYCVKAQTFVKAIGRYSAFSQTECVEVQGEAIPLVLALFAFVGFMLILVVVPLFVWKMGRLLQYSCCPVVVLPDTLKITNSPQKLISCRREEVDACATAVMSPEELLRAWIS
Source text: (§1) FIG. 3C illustrates cell surface staining assay for the IL-24 receptor binding. Cos-E5 cells transfected with either the IL-20R1, IL-22R1 and IL20R2 expression vector alone or in pairs were stained for the cell surface-bound IL-24-AP activity and viewed under a light microscope (20× magnification) without phase contrast.
(§2) Based on published data and database searches of GenBank (NCBI), only three R1 and two R2 types of the IL-10 family of receptor subunits can be identified. The three R1 subunits are IL-10R1, IL-20R1 and IL-22R1, whereas the two R2 subunits are IL-20R2 and IL-1OR2, the latter of which is also the second receptor subunit for IL-22. Thus, the IL-24 receptor could be a heterodimer of a combination of the known R1 and R2 receptors. […] The quantitative cell surface binding assays were carried out with Cos cells after transfecting plasmids over-expressing IL-10R2, IL-20R1, IL-22R1 and IL-20R2 individually or in all four R1/R2 combinations (FIG. 3B). […] Using AP staining assays, the quantitative IL-24-AP binding data was confirmed (FIG. 3C). Specific cell surface staining was detected with IL-24-AP when Cos cells were transiently transfected with […] (FIG. 3C).

[2] = biological target: T2, IL-22R1/IL-20R2 heterodimeric receptor on co-transfected cells (human, UniProt Q6UXL0 30-311); assay: as above
T2 construct: whole, on cells; Both subunits were co-transfected into Cos-E5, BHK or Ba/F3 cells; also called IL-24 receptor (IL-22R1/IL-20R2)
T2 sequence 1: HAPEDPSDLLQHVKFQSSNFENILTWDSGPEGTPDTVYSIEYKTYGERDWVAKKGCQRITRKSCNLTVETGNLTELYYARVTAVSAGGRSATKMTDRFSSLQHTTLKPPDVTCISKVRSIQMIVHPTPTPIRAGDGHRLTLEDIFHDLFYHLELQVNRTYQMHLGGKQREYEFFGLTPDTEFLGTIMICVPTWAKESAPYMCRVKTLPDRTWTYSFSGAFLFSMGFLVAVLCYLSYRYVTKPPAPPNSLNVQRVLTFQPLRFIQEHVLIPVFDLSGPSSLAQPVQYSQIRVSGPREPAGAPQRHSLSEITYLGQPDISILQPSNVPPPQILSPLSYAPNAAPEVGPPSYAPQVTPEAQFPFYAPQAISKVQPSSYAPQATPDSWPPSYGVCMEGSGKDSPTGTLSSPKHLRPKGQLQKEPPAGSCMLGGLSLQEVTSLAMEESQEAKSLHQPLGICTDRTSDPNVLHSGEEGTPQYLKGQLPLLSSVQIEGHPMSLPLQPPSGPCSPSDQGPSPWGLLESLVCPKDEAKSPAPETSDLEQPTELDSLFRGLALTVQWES
T2 sequence 2: T1 sequence 2
Source text: as §1, §2

[3] = biological target: T3, human IL-20R1, expressed alone on transfected cells (human, UniProt Q9UHF4 30-553); assay: quantitative cell surface AP binding assay on transfected Cos cells
T3 sequence: T1 sequence 1

[4] = biological target: T4, human IL-22R1, expressed alone on transfected cells (human, UniProt Q8N6P7 16-574); assay: as above
T4 sequence: T2 sequence 1

[5] = biological target: T5, secreted human placental alkaline phosphatase (AP) (human, UniProt P05187 23-511); assay: as above
T5 construct: Control probe, used as conditioned medium; also called AP control
T5 sequence (P05187 23-511): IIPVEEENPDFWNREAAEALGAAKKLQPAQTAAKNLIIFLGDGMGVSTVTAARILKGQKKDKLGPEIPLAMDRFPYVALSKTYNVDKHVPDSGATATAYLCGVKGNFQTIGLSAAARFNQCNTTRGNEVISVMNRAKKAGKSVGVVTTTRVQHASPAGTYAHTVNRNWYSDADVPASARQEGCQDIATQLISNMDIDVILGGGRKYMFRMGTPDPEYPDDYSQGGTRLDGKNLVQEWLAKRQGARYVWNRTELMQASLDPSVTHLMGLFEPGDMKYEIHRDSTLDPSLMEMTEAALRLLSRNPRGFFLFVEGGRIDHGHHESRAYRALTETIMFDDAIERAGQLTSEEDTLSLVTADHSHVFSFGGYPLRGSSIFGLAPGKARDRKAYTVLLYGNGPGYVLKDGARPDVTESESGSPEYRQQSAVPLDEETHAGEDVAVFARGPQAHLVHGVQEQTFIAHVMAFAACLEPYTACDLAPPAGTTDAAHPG

binding result [1]: binds
binding result [2]: binds
binding result [3]: no binding
binding result [4]: no binding
B1: human IL-24-AP fusion protein (ligand, UniProt Q13007 52-206, looked up)
chain: QEFHFGPCQVKGVVPQKLWEAFWAVKDTMQAQDNITSARLLQQEVLQNVSDAESCYLVHTLLEFYLKTVFKNYHNRTVEVRTLKSFSTLANNFVLIVSQLQPSQENEMFSIRDSAHRRFLLFRRAFKQLDVEAALTKALGEVDILLTWMQKFYKL
notes: Used as conditioned medium; also called Mob-5-alkaline phosphatase fusion protein; not shown: secreted human placental alkaline phosphatase (AP)

binding result [5]: no binding
B2: human IL-20R2, expressed alone on transfected cells (receptor, UniProt Q6UXL0 30-311, looked up)
chain: T1 sequence 2
notes: whole, on cells
